From PMC6982183

Target: human Hsp60 G190W mutant (human) (UniProt P10809)
Experiment: SEC; Superdex 200 Increase 10/300 GL, 50 mM Tris-HCl (pH 7.8 at 25 °C), 2 mM DTT, 2 mM EDTA, 0.5 mg sample, 0.75 mL/min; size from calibration with molecular weight standards; before and after agitation

## human Hsp60 G190W mutant (from UniProt P10809 53-573) (natural protein)
  stoichiometry N: 14
